Columns and labels:
[1] = molecular target: human chemokine (C-C motif) receptor 8 (CCR8) (human, UniProt P51685 1-355); assay: cell-based or functional assay
[2] = molecular target: T1, human CCR8 (human, UniProt P51685 1-355); assay: flow blocking, PBMC CCR8+CD3+; competitor PE-AB13
T1 construct: Native CCR8 on human PBMC (CCR8+ CD3+ or CCR8+ CD4+ lymphocytes); also called chemokine (C-C motif) receptor 8
Procedure: (§1) For blocking studies, 100 μL of the cell suspension were incubated with 10 μg purified isotype control, AB1, AB2, AB3, AB4, AB5, AB8, AB9, AB10, AB11, AB12, AB13, AB14, AB15, and Commercial ABI antibodies, or isotype control, as blocking agents.
(§2) After incubation with the blocking agent, the cells were incubated with 0.25 μg of the indicated PE-conjugated antibody plus anti-human CD4 APC or anti-human CD3 for another 15 minutes in the dark and then washed 2 times with Cell Staining Buffer, and acquired in a FACSCanto II flow cytometer (BD Biosciences); the data was analyzed using FCS Express (De Novo Software); MFI correspond to the CCR8+ CD4+ lymphocytes or CCR8+ CD3+ lymphocytes.
(§3) Percentage original MFI was calculated by dividing the MFI of samples blocked with AB1, AB2, AB3, AB4, AB5, AB6, AB7, AB8, AB9, AB10, AB11, AB12, AB13, AB14, AB15, and Commercial ABI antibodies, by the MFI of samples blocked with the corresponding isotype control. This value was subtracted from 100 to get a blocking percentage. The formula is shown below: […]

[3] = molecular target: T1, human CCR8; assay: flow blocking, PBMC CCR8+CD3+; competitor PE-AB11
Procedure: as §1, §2, §3

[4] = molecular target: T1, human CCR8; assay: flow blocking, PBMC CCR8+CD3+; competitor PE-AB8
Procedure: as §1, §2, §3

[5] = molecular target: T1, human CCR8; assay: flow blocking, PBMC CCR8+CD4+; competitor PE-AB3
Method in brief: (§4)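 Block: 10 μg unlabeled Ab or isotype. Stain: 0.25 μg PE-competitor + anti-hCD4 APC or anti-hCD3, 15 min, dark; wash ×2. Flow MFI on CCR8+CD4+/CD3+ gate. % block = 100 − % of isotype MFI.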

[6] = molecular target: T1, human CCR8; assay: flow blocking, PBMC CCR8+CD4+; competitor PE-AB12
Method in brief: as §4

[7] = molecular target: T1, human CCR8; assay: flow blocking, PBMC CCR8+CD3+; competitor PE-L263G8
Procedure: as §1, §2, §3

[8] = molecular target: T1, human CCR8; assay: flow blocking, PBMC CCR8+CD3+; competitor PE-AB15
Procedure: as §1, §2, §3

[9] = molecular target: T1, human CCR8; assay: flow blocking, PBMC CCR8+CD4+; competitor PE-AB4
Method in brief: as §4

[10] = molecular target: T1, human CCR8; assay: flow blocking, PBMC CCR8+CD3+; competitor PE-433H
Procedure: as §1, §2, §3

[11] = molecular target: T1, human CCR8; assay: flow blocking, PBMC CCR8+CD4+; competitor PE-AB15
Method in brief: as §4

[12] = molecular target: T1, human CCR8; assay: flow blocking, PBMC CCR8+CD4+; competitor PE-AB13
Method in brief: (§5)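 Human PBMC (100 μL suspension) were pre-blocked with 10 μg of each unlabelled anti-CCR8 antibody or isotype control. Cells were then stained 15 min in the dark with 0.25 μg of the PE-conjugated competitor antibody plus anti-CD4 or anti-CD3. Read-out by flow cytometry as MFI on CCR8+CD4+ or CCR8+CD3+ lymphocytes.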

[13] = molecular target: T1, human CCR8; assay: flow blocking, PBMC CCR8+CD3+; competitor PE-AB6
Procedure: as §1, §2, §3

[14] = molecular target: T1, human CCR8; assay: flow blocking, PBMC CCR8+CD4+; competitor PE-AB1
Method in brief: as §4

[15] = molecular target: T1, human CCR8; assay: flow blocking, PBMC CCR8+CD3+; competitor PE-AB12
Procedure: as §1, §2, §3

[16] = molecular target: T1, human CCR8; assay: flow blocking, PBMC CCR8+CD4+; competitor PE-433H
Method in brief: as §5

[17] = molecular target: T1, human CCR8; assay: flow blocking, PBMC CCR8+CD4+; competitor PE-AB11
Method in brief: as §4

[18] = molecular target: T1, human CCR8; assay: flow blocking, PBMC CCR8+CD4+; competitor PE-AB6
[19] = molecular target: T1, human CCR8; assay: flow blocking, PBMC CCR8+CD4+; competitor PE-AB14
Method in brief: as §5

[20] = molecular target: T1, human CCR8; assay: flow blocking, PBMC CCR8+CD3+; competitor PE-AB10
Procedure: as §1, §2, §3

[21] = molecular target: T1, human CCR8; assay: flow blocking, PBMC CCR8+CD3+; competitor PE-AB7
Procedure: as §1, §2, §3

[22] = molecular target: T1, human CCR8; assay: flow blocking, PBMC CCR8+CD3+; competitor PE-AB5
Procedure: as §1, §2, §3

[23] = molecular target: T1, human CCR8; assay: flow blocking, PBMC CCR8+CD4+; competitor PE-AB5
Method in brief: as §4

[24] = molecular target: T1, human CCR8; assay: flow blocking, PBMC CCR8+CD4+; competitor PE-AB10
Method in brief: as §4

[25] = molecular target: T1, human CCR8; assay: flow blocking, PBMC CCR8+CD4+; competitor PE-AB2
Method in brief: as §4

[26] = molecular target: T1, human CCR8; assay: flow blocking, PBMC CCR8+CD3+; competitor PE-AB14
Procedure: as §1, §2, §3

T1 sequence (P51685 whole entry): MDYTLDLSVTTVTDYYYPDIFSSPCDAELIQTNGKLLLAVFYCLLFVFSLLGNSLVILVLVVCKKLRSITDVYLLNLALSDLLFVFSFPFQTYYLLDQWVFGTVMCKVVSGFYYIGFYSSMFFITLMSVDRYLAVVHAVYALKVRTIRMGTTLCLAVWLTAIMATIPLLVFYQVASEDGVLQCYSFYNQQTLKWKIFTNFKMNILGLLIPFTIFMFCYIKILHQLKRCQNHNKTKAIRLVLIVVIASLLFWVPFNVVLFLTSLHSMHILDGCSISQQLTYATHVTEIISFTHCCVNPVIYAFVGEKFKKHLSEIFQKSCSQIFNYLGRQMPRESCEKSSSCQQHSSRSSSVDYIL
Chain of human chemokine (C-C motif) receptor 8 (CCR8) (P51685 whole entry): as above

B1: AB6 (antibody, V domains shown)
VH: QVQLKESGPGLVQPSQTLSLTCTVSGFSLTSYHVSWVRQPPGKGLEWMGVIWTGGSTTYNSLLKSRLSISRDISKSQVFLKMNSLQTEDTATYYCARGGTVVKGGFAYWGQGTLVTVSS
VL: DIQMTQSPASLSASLEEIVTITCQASQDIGNRLSWYQQKPGKSPQLLIYGATSLADGVPSRFSGSRSGTQYSLKISRLQVEDIGIYYCLQAYSTPLTFGSGTKLEIK
- % hCCR8-Ba/F3 - THP-1 complexes [1]: 1.88%

B2: AB7 (antibody, V domains shown)
VH: AVQLVESGGGLVQPKESLKISCAASGFTFSYAAMYWVRQTPGKGLEWVARIRTKPNNYATYYADSVKGRFTISRDDSKSMVYLQMDNLKSEDTAMYYCNIMGITRGYYFDYWGQGVMVTVSS
VL: DIQMTQSPSFLSASVGDRVTINCKASQNINRYLNWYQQQLGEAPKLLIYNANNLQTGIPSRFSGSRSGTDFTLTISSLQPEDVATYFCLQHNSWPWTFGGGTKLELK
- % hCCR8-Ba/F3 - THP-1 complexes [1]: 2.2%

B3: AB11 (antibody, V domains shown)
VH: EVQLVESGGGLVQPKGSLKLSCAASGFAFNTYAMNWVRQAPGKGLEWIARLRSKSNFYATYYADSVKDRFTISRDDSQSMLYLQMNNLKTEDTAVYYCVRGRELGPSYAMDYWGQGTSVTVSS
VL: DIVMTQAAPSVPVTPGESVSISCRSSKSLLHSNGNTYLYWFLQRPGQSPQLLIYRMSNLASGVPDRFSGSGSGTAFTLRISRVEAEDVGVYYCMQHLEYPYTFGGGTKLEIK
notes: Hybridoma monoclonal; also called antibody 11; clone 11
- % Blocking [2]: 34.6%
- MFI [2]: 579
- % Blocking [3]: 42.7%
- MFI [3]: 532
- % Blocking [4]: 17.8%
- MFI [4]: 977
- % Blocking [5]: -26.3%
- % Positive cells [5]: 2.16%
- % Blocking [6]: 98.3%
- % Positive cells [6]: 0.03%
- % Blocking [7]: 36.6%
- MFI [7]: 427
- % Blocking [8]: 52%
- MFI [8]: 412
- % Blocking [9]: -27%
- % Positive cells [9]: 2.26%
- % Blocking [10]: 43.3%
- MFI [10]: 503
- % Blocking [11]: 93.8%
- % Positive cells [11]: 0.08%
- % Blocking [12]: 96.5%
- % Positive cells [12]: 0.07%
- % Blocking [13]: -8.93%
- MFI [13]: 1010
- % Blocking [14]: -31.6%
- % Positive cells [14]: 2.04%
- % Blocking [15]: 48%
- MFI [15]: 531
- % Blocking [16]: 38.6%
- % Positive cells [16]: 1.08%
- % Blocking [17]: 96.9%
- % Positive cells [17]: 0.06%
- % Blocking [18]: -5.45%
- % Positive cells [18]: 2.13%
- % Blocking [19]: 99.2%
- % Positive cells [19]: 0.01%
- % Blocking [20]: 34.4%
- MFI [20]: 522
- % Blocking [21]: 13.1%
- MFI [21]: 1020
- % Blocking [22]: -2.94%
- MFI [22]: 1020
- % Blocking [23]: -27.7%
- % Positive cells [23]: 2.58%
- % Blocking [24]: -2.7%
- % Positive cells [24]: 1.52%
- % Blocking [25]: -22.6%
- % Positive cells [25]: 2.01%
- % Blocking [26]: 41.4%
- MFI [26]: 506

B4: AB13 (antibody, V domains shown)
VH: EVQLVETGGGLVQPKGSLKLSCAASGFTFNAYAMNWVRQAPGKGLEWVARIRTKSNNYATYYADSVKDRFTISRDDSQTMLYLQMNNLKTEDTAMYYCVRDRATVTTGRAMDYWGQGTSVTVSS
VL: DIVMTQAAPSLPVTPGESVSISCRSSKSLLHSNGNTYLYWFLQRAGQSPQLLIYRMSNLASGVPDRFSGSGSGTAFTLRISRVEAEDVGVYYCMQHLEYPFTFGSGTKLEIK
notes: Hybridoma monoclonal; also called antibody 13; clone 13
- % Blocking [2]: 24.6%
- MFI [2]: 668
- % Blocking [3]: 5.33%
- MFI [3]: 878
- % Blocking [4]: 44.1%
- MFI [4]: 664
- % Blocking [5]: -19.3%
- % Positive cells [5]: 2.04%
- % Blocking [6]: 99.4%
- % Positive cells [6]: 0.01%
- % Blocking [7]: 11.8%
- MFI [7]: 594
- % Blocking [8]: 30%
- MFI [8]: 601
- % Blocking [9]: -18.5%
- % Positive cells [9]: 2.11%
- % Blocking [10]: 8.18%
- MFI [10]: 814
- % Blocking [11]: -34.9%
- % Positive cells [11]: 1.74%
- % Blocking [12]: 95.5%
- % Positive cells [12]: 0.09%
- % Blocking [13]: -17.2%
- MFI [13]: 1080
- % Blocking [14]: -36.8%
- % Positive cells [14]: 2.12%
- % Blocking [15]: 21.8%
- MFI [15]: 800
- % Blocking [16]: 34.7%
- % Positive cells [16]: 1.15%
- % Blocking [17]: 98%
- % Positive cells [17]: 0.04%
- % Blocking [18]: 1.49%
- % Positive cells [18]: 1.99%
- % Blocking [19]: 99.2%
- % Positive cells [19]: 0.01%
- % Blocking [20]: 8.91%
- MFI [20]: 726
- % Blocking [21]: 46.1%
- MFI [21]: 630
- % Blocking [22]: -14.7%
- MFI [22]: 1130
- % Blocking [23]: -7.92%
- % Positive cells [23]: 2.18%
- % Blocking [24]: 96%
- % Positive cells [24]: 0.06%
- % Blocking [25]: -33.5%
- % Positive cells [25]: 2.19%
- % Blocking [26]: 30.8%
- MFI [26]: 598

Reference: patent US20240360228A1 (BIOLEGEND, published 2024)
